Literature values in PMC6953019.

Molecular target: TβRII (Homo sapiens) (UniProt P37173)
Experiment: SPR

Chain of TGFβ2 (P61812 303-414): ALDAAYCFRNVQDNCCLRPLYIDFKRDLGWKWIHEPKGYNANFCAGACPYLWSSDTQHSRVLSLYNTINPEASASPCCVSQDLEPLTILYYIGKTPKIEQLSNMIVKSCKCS
Chain of TβRII (Homo sapiens) (P37173 23-166): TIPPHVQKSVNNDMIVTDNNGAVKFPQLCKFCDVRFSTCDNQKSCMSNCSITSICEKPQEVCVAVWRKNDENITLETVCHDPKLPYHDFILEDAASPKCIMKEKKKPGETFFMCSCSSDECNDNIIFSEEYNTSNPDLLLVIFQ

Kd: 5 nM
Substance: TGFβ2 (from UniProt P61812)
